Measured values from patent publication US20110318808.

How the values were obtained:
[1] = biological target: T1, synthetic peptide SENVTFQGSS (consensus recognition sequence ENVTFQG)
T1 chain: SENVTFQGSS

[2] = biological target: T2, fusion substrate protein with the PVA NIa protease consensus sequence with a P2' proline (ENVTFQGP)
T2 chain: ENVTFQGP

[3] = biological target: T3, synthetic peptide SEVVLFQASS (P3/6K1 junction recognition sequence EVVLFQA)
T3 chain: SEVVLFQASS

[4] = biological target: T4, fluorophore/quencher substrate peptide DABCYL-YGENVTFQGSK-EDANS
T4 chain: YGENVTFQGSK

[5] = biological target: T5, synthetic peptide SENVTKQLSS (recognition sequence ENVTKQL)
T5 chain: SENVTKQLSS

[6] = biological target: T6, fusion substrate protein with the ENVTFQG consensus recognition sequence
T6 chain: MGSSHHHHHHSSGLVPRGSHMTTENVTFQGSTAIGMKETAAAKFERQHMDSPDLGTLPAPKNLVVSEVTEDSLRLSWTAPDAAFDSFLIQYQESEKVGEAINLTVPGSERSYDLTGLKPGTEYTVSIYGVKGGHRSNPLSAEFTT

[7] = biological target: T7, fusion substrate protein with the TVMV NIa protease recognition sequence (ETVRFQGS)
T7 chain: ETVRFQGS

[8] = biological target: T8, fusion substrate protein with the TEV NIa protease recognition sequence (ENLYGQGS)
T8 chain: ENLYGQGS

[9] = biological target: T9, synthetic peptide SEAVYTQGSS (NIa/NIb junction recognition sequence EAVYTQG)
T9 chain: SEAVYTQGSS

[10] = biological target: T10, synthetic peptide SEMVTNQSSS (recognition sequence EMVTNQS)
T10 chain: SEMVTNQSSS

B1: potato virus A (PVA) NIa protease, wild type (protein)
chain: STSMFRGVRDYNPISSVICQLENESEGRTTQLFGLGFGPFIITNQHLFVRNNGSLTVRSQMGVFKVNSTVTLQMRPVEGRDVLIIKMPKDFPPFPQRLKFRQPTHSEKVCLILTNFQQKSSSSMVSETSHIIPKENTYFWKHWISTKEGHCGSPIVSTTDGAILGIHSLSNMTNTSNYFACFPKGFTETYLATESAHEWVKGWKFNASNVCWGSFHLQDSKPTKEFKTVKLV
- Cleaved by NIa (synthetic peptide, RP-HPLC and LC-MS) [1]: Yes
- Cleaved by NIa (fusion substrate protein) [2]: No
- Cleaved by NIa (synthetic peptide, RP-HPLC and LC-MS) [3]: Yes
- Km (uM), DTT + [4]: 178 µM
- Relative Kcat/Km, DTT + [4]: 100
- Vmax (RFU/min), DTT + [4]: 78500 RFU/min
- Cleaved by NIa (synthetic peptide, RP-HPLC and LC-MS) [5]: No
- proteolytic cleavage of the substrate monitored by SDS-PAGE [6]: cleaved the substrate to completion
- Cleaved by NIa (fusion substrate protein) [7]: Yes
- rate of cleavage of fusion substrate [7]: able to cleave the fusion substrate with the TVMV NIa protease recognition sequence, although at a much lower rate than the PVA NIa protease consensus sequence
- Cleaved by NIa (fusion substrate protein) [8]: No
- Cleaved by NIa (synthetic peptide, RP-HPLC and LC-MS) [9]: Yes
- Cleaved by NIa (synthetic peptide, RP-HPLC and LC-MS) [10]: No
